Test results taken from PMC4754349, “Tripartite assembly of RND multidrug efflux pumps” (Nature Communications, 2016).

B1: lipidated MexA (natural protein)
chain: CGKSEAPPPAQTPEVGIVTLEAQTVTLNTELPGRTNAFRIAEVRPQVNGIILKRLFKEGSDVKAGQQLYQIDPATYEADYQSAQANLASTQEQAQRYKLLVADQAVSKQQYADANAAYLQSKAAVEQARINLRYTKVLSPISGRIGRSAVTEGALVTNGQANAMATVQQLDPIYVDVTQPSTALLRLRRELASGQLERAGDNAAKVSLKLEDGSQYPLEGRLEFSEVSVDEGTGSVTIRAVFPNPNNELLPGMFVHAQLQEGVKQKAILAPQQGVTRDLKGQATALVVNAQNKVELRVIKADRVIGDKWLVTEGLNAGDKIITEGLQFVQPGVEVKTVPAKNVASAQKADAAPAKTDSKG
modifications: lipidated (palmitoylation of an N-terminal cysteinyl residue)
notes: MexA, periplasmic membrane fusion protein of Pseudomonas aeruginosa, native lipidated form, 39 kDa monomer; also called native lipid-modified MFP; source: E. coli C43ΔacrB, purified (HisTrap HP, gel filtration Superose 6), in 0.03% DDM
B2: MexB reconstituted into nanodiscs (MexB–ND) (natural protein)
chain: MSKFFIDRPIFAWVIALVIMLAGGLSILSLPVNQYPAIAPPAIAVQVSYPGASAETVQDTVVQVIEQQMNGIDNLRYISSESNSDGSMTITVTFEQGTDPDIAQVQVQNKLQLATPLLPQEVQRQGIRVTKAVKNFLMVVGVVSTDGSMTKEDLSNYIVSNIQDPLSRTKGVGDFQVFGSQYSMRIWLDPAKLNSYQLTPGDVSSAIQAQNVQISSGQLGGLPAVKGQQLNATIIGKTRLQTAEQFENILLKVNPDGSQVRLKDVADVGLGGQDYSINAQFNGSPASGIAIKLATGANALDTAKAIRQTIANLEPFMPQGMKVVYPYDTTPVVSASIHEVVKTLGEAILLVFLVMYLFLQNFRATLIPTIAVPVVLLGTFGVLAAFGFSINTLTMFGMVLAIGLLVDDAIVVVENVERVMAEEGLSPREAARKSMGQIQGALVGIAMVLSAVFLPMAFFGGSTGVIYRQFSITIVSAMALSVIVALILTPALCATMLKPIEKGDHGEHKGGFFGWFNRMFLSTTHGYERGVASILKHRAPYLLIYVVIVAGMIWMFTRIPTAFLPDEDQGVLFAQVQTPPGSSAERTQVVVDSMREYLLEKESSSVSSVFTVTGFNFAGRGQSSGMAFIMLKPWEERPGGENSVFELAKRAQMHFFSFKDAMVFAFAPPSVLELGNATGFDLFLQDQAGVGHEVLLQARNKFLMLAAQNPALQRVRPNGMSDEPQYKLEIDDEKASALGVSLADINSTVSIAWGSSYVNDFIDRGRVKRVYLQGRPDARMNPDDLSKWYVRNDKGEMVPFNAFATGKWEYGSPKLERYNGVPAMEILGEPAPGLSSGDAMAAVEEIVKQLPKGVGYSWTGLSYEERLSGSQAPALYALSLLVVFLCLAALYESWSIPFSVMLVVPLGVIGALLATSMRGLSNDVFFQVGLLTTIGLSAKNAILIVEFAKELHEQGKGIVEAAIEACRMRLRPIVMTSLAFILGVVPLAISTGAGSGSQHAIGTGVIGGMVTATVLAIFWVPLFYVAVSTLFKDEASKQQASVEKGQ
notes: MexB, inner membrane RND transporter of Pseudomonas aeruginosa; called native; One trimer in each nanodisc (POPC, MSP1E3D1); also called RND; source: E. coli C43ΔacrB, purified (HisTrap HP, gel filtration Superose 6), reconstituted into POPC/MSP1E3D1 nanodiscs
B3: OprM reconstituted into nanodiscs (OprM–ND) (natural protein)
chain: CSLIPDYQRPEAPVAAAYPQGQAYGQNTGAAAVPAADIGWREFFRDPQLQQLIGVALENNRDLRVAALNVEAFRAQYRIQRADLFPRIGVDGSGTRQRLPGDLSTTGSPAISSQYGVTLGTTAWELDLFGRLRSLRDQALEQYLATEQAQRSAQTTLVASVATAYLTLKADQAQLQLTKDTLGTYQKSFDLTQRSYDVGVASALDLRQAQTAVEGARATLAQYTRLVAQDQNALVLLLGSGIPANLPQGLGLDQTLLTEVPAGLPSDLLQRRPDILEAEHQLMAANASIGAARAAFFPSISLTANAGTMSRQLSGLFDAGSGSWLFQPSINLPIFTAGSLRASLDYAKIQKDINVAQYEKAIQTAFQEVADGLAARGTFTEQLQAQRDLVKASDEYYQLADKRYRTGVDNYLTLLDAQRSLFTAQQQLITDRLNQLTSEVNLYKALGGGWNQQTVTQQQTAKKEDPQA
notes: OprM, outer membrane factor of Pseudomonas aeruginosa; called native; One trimer in each nanodisc (POPC, MSP1D1); also called OMF; source: E. coli C43ΔacrB, purified (HisTrap HP, gel filtration Superose 6), reconstituted into POPC/MSP1D1 nanodiscs

Assays:
[1] = molecular target: B2; experiment: native gel or EMSA; native PAGE, 4–15% gradient gel, Tris-Glycine running buffer, silver stained; nanodisc-reconstituted MexB and OprM mixed 1:1, with or without lipidated MexA (1:1:10 molar ratio); conditions: both partners purified
[2] = molecular target: B3; experiment: as above; conditions: both partners purified
[3] = molecular target: the molecule itself; experiment: negative-stain electron microscopy, single-particle analysis; nanodisc-reconstituted RND and OMF mixed with lipidated MFP (1:1:10, or SEC-purified complex), stained with 2% uranyl acetate on carbon-coated grids; reference-free two-dimensional class averages (SPIDER)

Binder	binding result [1]	binding result [2]	binding result [3]
B1	binds	binds	
B2			binds
B3			binds
